# Test results as given in US20240083958A1, “G PROTEIN PEPTIDOMIMETICS” (VRIJE UNIVERSITEIT BRUSSEL, priority 2020, published 2024).
# Where two headings read alike, the source gives them in different places. Bridge positions count the residues as written; N and C are the ends. Square brackets hold non-standard residues; d marks the D form. Primed or numbered codes have the meaning given here. Azk = residue with azidated side chain, clicked to Pra; Pra′ = residue with alkynyl side chain, clicked to Azk; Lys(N3) = [N-]=[N+]=NCCCC[C@H](N)C(=O)O; Cha = N[C@@H](CC1CCCCC1)C(=O)O; S5 = C=CCCC[C@](C)(N)C(=O)O; Pra = C#CC[C@H](N)C(=O)O
# B1: compound 66 (peptide)
# peptide: QRMHLRQYEXL
# HELM: PEPTIDE1{[ac].Q.R.M.H.L.R.Q.Y.E.[Cha].L}$$$$V2.0
# SMILES: CSCC[C@H](NC(=O)[C@H](CCCNC(=N)N)NC(=O)[C@H](CCC(N)=O)NC(C)=O)C(=O)N[C@@H](Cc1c[nH]cn1)C(=O)N[C@@H](CC(C)C)C(=O)N[C@@H](CCCNC(=N)N)C(=O)N[C@@H](CCC(N)=O)C(=O)N[C@@H](Cc1ccc(O)cc1)C(=O)N[C@@H](CCC(=O)O)C(=O)N[C@@H](CC1CCCCC1)C(=O)N[C@@H](CC(C)C)C(=O)O
# B2: compound 4 (peptide)
# peptide: FNDCRDEIQRKHLRQYELL
# HELM: PEPTIDE1{F.N.D.C.R.D.E.I.Q.R.K.H.L.R.Q.Y.E.L.L}$PEPTIDE1,PEPTIDE1,7:R3-11:R3$$$V2.0
# SMILES: CC[C@H](C)[C@@H]1NC(=O)[C@@H](NC(=O)[C@H](CC(=O)O)NC(=O)[C@H](CCCNC(=N)N)NC(=O)[C@H](CS)NC(=O)[C@H](CC(=O)O)NC(=O)[C@H](CC(N)=O)NC(=O)[C@@H](N)Cc2ccccc2)CCC(=O)NCCCC[C@@H](C(=O)N[C@@H](Cc2c[nH]cn2)C(=O)N[C@@H](CC(C)C)C(=O)N[C@@H](CCCNC(=N)N)C(=O)N[C@@H](CCC(N)=O)C(=O)N[C@@H](Cc2ccc(O)cc2)C(=O)N[C@@H](CCC(=O)O)C(=O)N[C@@H](CC(C)C)C(=O)N[C@@H](CC(C)C)C(=O)O)NC(=O)[C@H](CCCNC(=N)N)NC(=O)[C@H](CCC(N)=O)NC1=O
# B3: compound 24 (peptide)
# peptide: FNECRDKIQRMHLRQYELL
# HELM: PEPTIDE1{[ac].F.N.E.C.R.D.K.I.Q.R.M.H.L.R.Q.Y.E.L.L}$PEPTIDE1,PEPTIDE1,4:R3-8:R3$$$V2.0
# SMILES: CC[C@H](C)[C@H](NC(=O)[C@@H]1CCCCNC(=O)CC[C@H](NC(=O)[C@H](CC(N)=O)NC(=O)[C@H](Cc2ccccc2)NC(C)=O)C(=O)N[C@@H](CS)C(=O)N[C@@H](CCCNC(=N)N)C(=O)N[C@@H](CC(=O)O)C(=O)N1)C(=O)N[C@@H](CCC(N)=O)C(=O)N[C@@H](CCCNC(=N)N)C(=O)N[C@@H](CCSC)C(=O)N[C@@H](Cc1c[nH]cn1)C(=O)N[C@@H](CC(C)C)C(=O)N[C@@H](CCCNC(=N)N)C(=O)N[C@@H](CCC(N)=O)C(=O)N[C@@H](Cc1ccc(O)cc1)C(=O)N[C@@H](CCC(=O)O)C(=O)N[C@@H](CC(C)C)C(=O)N[C@@H](CC(C)C)C(=O)O
# B4: compound 26 (peptide)
# peptide: Ac-FN[S5]CRD[S5]IQRMHLRQYELL-OH
# modifications: staple 3-7
# SMILES: CC[C@H](C)[C@H](NC(=O)[C@]1(C)CCCC=CCCC[C@](C)(NC(=O)[C@H](CC(N)=O)NC(=O)[C@H](Cc2ccccc2)NC(C)=O)C(=O)N[C@@H](CS)C(=O)N[C@@H](CCCNC(=N)N)C(=O)N[C@@H](CC(=O)O)C(=O)N1)C(=O)N[C@@H](CCC(N)=O)C(=O)N[C@@H](CCCNC(=N)N)C(=O)N[C@@H](CCSC)C(=O)N[C@@H](Cc1c[nH]cn1)C(=O)N[C@@H](CC(C)C)C(=O)N[C@@H](CCCNC(=N)N)C(=O)N[C@@H](CCC(N)=O)C(=O)N[C@@H](Cc1ccc(O)cc1)C(=O)N[C@@H](CCC(=O)O)C(=O)N[C@@H](CC(C)C)C(=O)N[C@@H](CC(C)C)C(=O)O
# B5: compound 67 (peptide)
# peptide: RDIIQRMHLRQYEXL
# HELM: PEPTIDE1{[ac].R.D.I.I.Q.R.M.H.L.R.Q.Y.E.[Cha].L}$$$$V2.0
# SMILES: CC[C@H](C)[C@H](NC(=O)[C@H](CC(=O)O)NC(=O)[C@H](CCCNC(=N)N)NC(C)=O)C(=O)N[C@H](C(=O)N[C@@H](CCC(N)=O)C(=O)N[C@@H](CCCNC(=N)N)C(=O)N[C@@H](CCSC)C(=O)N[C@@H](Cc1c[nH]cn1)C(=O)N[C@@H](CC(C)C)C(=O)N[C@@H](CCCNC(=N)N)C(=O)N[C@@H](CCC(N)=O)C(=O)N[C@@H](Cc1ccc(O)cc1)C(=O)N[C@@H](CCC(=O)O)C(=O)N[C@@H](CC1CCCCC1)C(=O)N[C@@H](CC(C)C)C(=O)O)[C@@H](C)CC
# B6: compound 82 (peptide)
# peptide: FNDCRDIIQRMHLRQXELL
# HELM: PEPTIDE1{[ac].F.N.D.C.R.D.I.I.Q.R.M.H.L.R.Q.[Cha].E.L.L}$$$$V2.0
# SMILES: CC[C@H](C)[C@H](NC(=O)[C@H](CC(=O)O)NC(=O)[C@H](CCCNC(=N)N)NC(=O)[C@H](CS)NC(=O)[C@H](CC(=O)O)NC(=O)[C@H](CC(N)=O)NC(=O)[C@H](Cc1ccccc1)NC(C)=O)C(=O)N[C@H](C(=O)N[C@@H](CCC(N)=O)C(=O)N[C@@H](CCCNC(=N)N)C(=O)N[C@@H](CCSC)C(=O)N[C@@H](Cc1c[nH]cn1)C(=O)N[C@@H](CC(C)C)C(=O)N[C@@H](CCCNC(=N)N)C(=O)N[C@@H](CCC(N)=O)C(=O)N[C@@H](CC1CCCCC1)C(=O)N[C@@H](CCC(=O)O)C(=O)N[C@@H](CC(C)C)C(=O)N[C@@H](CC(C)C)C(=O)O)[C@@H](C)CC
# B7: compound 84 (peptide)
# peptide: FNDCRDIIQRMHLRQYELX
# HELM: PEPTIDE1{[ac].F.N.D.C.R.D.I.I.Q.R.M.H.L.R.Q.Y.E.L.[Cha]}$$$$V2.0
# SMILES: CC[C@H](C)[C@H](NC(=O)[C@H](CC(=O)O)NC(=O)[C@H](CCCNC(=N)N)NC(=O)[C@H](CS)NC(=O)[C@H](CC(=O)O)NC(=O)[C@H](CC(N)=O)NC(=O)[C@H](Cc1ccccc1)NC(C)=O)C(=O)N[C@H](C(=O)N[C@@H](CCC(N)=O)C(=O)N[C@@H](CCCNC(=N)N)C(=O)N[C@@H](CCSC)C(=O)N[C@@H](Cc1c[nH]cn1)C(=O)N[C@@H](CC(C)C)C(=O)N[C@@H](CCCNC(=N)N)C(=O)N[C@@H](CCC(N)=O)C(=O)N[C@@H](Cc1ccc(O)cc1)C(=O)N[C@@H](CCC(=O)O)C(=O)N[C@@H](CC(C)C)C(=O)N[C@@H](CC1CCCCC1)C(=O)O)[C@@H](C)CC
# Assays:
# Assay in all cases: cell-based or functional assay
# human β2AR [1] = biological target: T1, human β2AR (human, UniProt P07550 2-365)
# human β2AR [2] = biological target: T1, human β2AR; remark: listed apart in the source
# human β2AR [3] = biological target: T1, human β2AR; remark: listed apart in the source
# human β2AR [4] = biological target: T1, human β2AR; remark: listed apart in the source
# human β2AR [5] = biological target: T1, human β2AR; remark: listed apart in the source
# human β2AR [6] = biological target: T1, human β2AR; remark: listed apart in the source
# human β2AR [7] = biological target: T1, human β2AR; remark: listed apart in the source
# human β2AR [8] = biological target: T1, human β2AR; remark: listed apart in the source
# human β2AR [9] = biological target: T1, human β2AR; remark: listed apart in the source
# human β2AR [10] = biological target: T1, human β2AR; remark: listed apart in the source
binder,measurement,setting,value
Ac-NARRIFNDCRDIIQRMHLRQYELL-OH [compound 72],Shift (averaged),human β2AR [1],47
same,"IC50 (nM) of isoproterenol, [3H]-DHA RLA, peptidomimetic present",human β2AR [2],22.2 nM
same,Shift,human β2AR [2],46
B1,Shift (averaged),human β2AR [1],2
same,"IC50 (nM) of isoproterenol, [3H]-DHA RLA, peptidomimetic present",human β2AR [3],551 nM
same,Shift,human β2AR [3],1
Ac-RFN[Pra′]CRD[Azk]IQRMHLRQYELL-OH (triazole 4-8) [compound 40],Shift (averaged),human β2AR [1],37
same,"IC50 (nM) of isoproterenol, [3H]-DHA RLA, peptidomimetic present",human β2AR [4],31.3 nM
same,Shift,human β2AR [4],37
Ac-KFN[Pra′]CRD[Azk]IQRMHLRQYELL-OH (triazole 4-8) [compound 41],Shift (averaged),human β2AR [1],51
same,"IC50 (nM) of isoproterenol, [3H]-DHA RLA, peptidomimetic present",human β2AR [4],26 nM
same,Shift,human β2AR [4],44
Ac-RRIFNDCRDIIQRMHLRQYELL-OH [compound 73],Shift (averaged),human β2AR [1],19
same,"IC50 (nM) of isoproterenol, [3H]-DHA RLA, peptidomimetic present",human β2AR [2],52.6 nM
same,Shift,human β2AR [2],19
Ac-KKFN[Pra]CRD[Lys(N3)]IQRMHLRQYE[Cha]L-OH (triazole 5-9) [compound 74],Shift (averaged),human β2AR [1],350
same,Fraction HI (%),human β2AR [5],89%
same,"IC50 (nM) of isoproterenol, [3H]-DHA RLA, peptidomimetic present",human β2AR [5],4.7 nM
same,Shift,human β2AR [5],350
Ac-KFN[Pra′]CRD[Azk]IQRMHLRQYE[Cha]L-OH (triazole 4-8) [compound 50],Shift (averaged),human β2AR [1],373
same,Fraction HI (%),human β2AR [5],86%
same,"IC50 (nM) of isoproterenol, [3H]-DHA RLA, peptidomimetic present",human β2AR [5],2.6 nM
same,Shift,human β2AR [5],616
Ac-FNDCRDEIQRKHLRQYELL-OH [compound 3],Shift (averaged),human β2AR [6],2
same,"IC50 (nM) of isoproterenol, [3H]-DHA RLA, peptidomimetic present",human β2AR [7],408 nM
same,Shift,human β2AR [7],2
B2,Shift (averaged),human β2AR [6],4
same,"IC50 (nM) of isoproterenol, [3H]-DHA RLA, peptidomimetic present",human β2AR [7],202 nM
same,Shift,human β2AR [7],4
Ac-FNDCRDEIQRKHLRQYELL-OH (lactam 7-11) [compound 5],Shift (averaged),human β2AR [6],4
same,"IC50 (nM) of isoproterenol, [3H]-DHA RLA, peptidomimetic present",human β2AR [7],197 nM
same,Shift,human β2AR [7],4
Ac-FNDCRD[S5]IQR[S5]HLRQYELL-OH (bridges not given here) [compound 6],Shift (averaged),human β2AR [6],9
same,"IC50 (nM) of isoproterenol, [3H]-DHA RLA, peptidomimetic present",human β2AR [8],104 nM
same,Shift,human β2AR [8],8
Ac-FNECRDKIQRMHLRQYELL-OH [compound 23],Shift (averaged),human β2AR [6],3
same,"IC50 (nM) of isoproterenol, [3H]-DHA RLA, peptidomimetic present",human β2AR [9],270 nM
B3,Shift (averaged),human β2AR [6],7
same,"IC50 (nM) of isoproterenol, [3H]-DHA RLA, peptidomimetic present",human β2AR [9],97.3 nM
same,Shift,human β2AR [9],7
Ac-FN[S5]CRD[S5]IQRMHLRQYELL-OH (bridges not given here) [compound 25],Shift (averaged),human β2AR [6],2
same,"IC50 (nM) of isoproterenol, [3H]-DHA RLA, peptidomimetic present",human β2AR [9],485 nM
same,Shift,human β2AR [9],1
B4,Shift (averaged),human β2AR [6],2
same,"IC50 (nM) of isoproterenol, [3H]-DHA RLA, peptidomimetic present",human β2AR [9],305 nM
same,Shift,human β2AR [9],2
B5,Shift (averaged),human β2AR [1],30
same,"IC50 (nM) of isoproterenol, [3H]-DHA RLA, peptidomimetic present",human β2AR [3],45.4 nM
same,Shift,human β2AR [3],17
B6,Shift (averaged),human β2AR [1],32
same,"IC50 (nM) of isoproterenol, [3H]-DHA RLA, peptidomimetic present",human β2AR [10],25.6 nM
same,Shift,human β2AR [10],32
B7,Shift (averaged),human β2AR [1],12
same,"IC50 (nM) of isoproterenol, [3H]-DHA RLA, peptidomimetic present",human β2AR [10],66.2 nM
same,Shift,human β2AR [10],12
